{"source": "FireProtDB (doi:10.1006/jmbi.2001.4728)", "settings": "Pseudomonas aeruginosa (strain ATCC 15692 / DSM 22644 / CIP 104116 / JCM 14847 / LMG 12228 / 1C / PRS 101 / PAO1); pH 7; 10 °C; Urea; Fluorescence; sodium phosphate 50 mM; reversible: yes; whole UniProt chain shown", "data": [{"protein": "Cytochrome c-551 wild type, P00099 (protein) MKPYALLSLLATGTLLAQGAWAEDPEVLFKNKGCVACHAIDTKMVGPAYKDVAAKFAGQAGAEAELAQRIKNGSQGVWGPIPMPPNAVSDDEAQTLAKWVLSQK", "values": [{"measurement": "denaturant m value", "value": 1.1, "unit": "kcal/mol/M"}, {"measurement": "denaturant midpoint (higher = more stable)", "value": 6.4, "unit": "M"}, {"measurement": "unfolding free energy", "value": 29.7, "unit": "kJ/mol"}]}]}
